Measured values: patent US20080032340A1 (UNIVERSITY OF ARIZONA, published 2008)
Bridges are numbered along the chain shown (N, C = ends). Where no end group is shown, it is not given here.

What was measured:
avidin = target: T1, avidin (hen egg white (chicken), UniProt P02701 25-152, glycosylated native state); assay: HABA competition, 50 µM HABA-avidin complex, absorbance at 500 nm, IC50 converted by Cheng-Prusoff
T1 construct: Bought from Pierce; also called glycosylated parent of NeutrAvidin
Procedure: (§1) After 60 minutes, the absorbance of the complex was monitored at 500 nm. To calculate the IC₅₀s of the selected peptides, the average of three separate trials were fitted to the Hill equation,
(§2) Best fit equations were calculated using KaleidaGraph (Synergy Software).

NeutrAvidin [1] = target: T2, NeutrAvidin (UniProt P02701 25-152, chemically deglycosylated and chemically modified to a more neutral isoelectric point (pI=6.3)); assay: HABA competition, 50 µM HABA-NeutrAvidin complex, absorbance at 500 nm, IC50 converted by Cheng-Prusoff
T2 construct: Bought from Pierce; also called NA; deglycosylated avidin
Procedure: as §1, §2

streptavidin = target: T3, streptavidin (UniProt P22629 37-163, limits assumed); assay: HABA competition, 50 µM HABA-streptavidin complex, absorbance at 500 nm
T3 construct: Bought from Pierce; Used free in solution in the HABA assay and immobilized on agarose resin in the fusion protein experiments; also called agarose immobilized streptavidin
Procedure: (§3) FIG. 1: Competitive ligand binding analysis of […] Error bars indicate the standard deviation of three separate assays.
After 60 minutes, the absorbance of the complex was monitored at 500 nm. To calculate the IC₅₀s of the selected peptides, the average of three separate trials were fitted to the Hill equation, […]

NeutrAvidin [2] = target: T2, NeutrAvidin; assay: HABA competition, uncyclized peptides (the filing cites 'FIG. 3B'; FIG. 1B holds these curves)
Procedure: as §3, §1, §2

Binder	Kd (avidin)	Kd (NeutrAvidin [1])	Kd (streptavidin)	Kd (NeutrAvidin [2])
CDLASPWCG-NH2 (disulfide 1-8; N-terminus assumed; SMILES CC(C)C[C@@H]1NC(=O)[C@H](CC(=O)O)NC(=O)[C@@H](N)CSSC[C@@H](C(=O)NCC(N)=O)NC(=O)[C@H](Cc2c[nH]c3ccccc23)NC(=O)[C@@H]2CCCN2C(=O)[C@H](CO)NC(=O)[C@H](C)NC1=O, Synthetic peptide from Fmoc synthesis on RinkAmide resin, oxidised in PBS with 10% DMSO; also called cyclic DLASPW peptide) [cyclized CDLASPWCG (SEQ ID NO: 5)]	46.2 µM	62.8 µM	> 5000 µM	
CDRASPYCG-NH2 (cysteine pairing not given here, Same peptide as m1, used as the linear form; also called linear DRASPY peptide; acyclic counterpart) [uncyclized CDRASPYCG (SEQ ID NO: 7)]				< 500 µM
CDRASPYCG-NH2 (disulfide 1-8; N-terminus assumed; SMILES C[C@@H]1NC(=O)[C@H](CCCNC(=N)N)NC(=O)[C@H](CC(=O)O)NC(=O)[C@@H](N)CSSC[C@@H](C(=O)NCC(N)=O)NC(=O)[C@H](Cc2ccc(O)cc2)NC(=O)[C@@H]2CCCN2C(=O)[C@H](CO)NC1=O, Synthetic peptide from Fmoc synthesis on RinkAmide resin, oxidised in PBS with 10% DMSO; also called cyclic DRASPY peptide) [cyclized CDRASPYCG (SEQ ID NO: 7)]	44.9 µM	31.5 µM	> 5000 µM	
CDRATPYCG-NH2 (cysteine pairing not given here, Same peptide as m2, used as the linear form; also called linear DRATPY peptide; acyclic counterpart) [uncyclized CDRATPYCG (SEQ ID NO: 9)]				< 500 µM
CDRATPYCG-NH2 (disulfide 1-8; N-terminus assumed; SMILES C[C@@H]1NC(=O)[C@H](CCCNC(=N)N)NC(=O)[C@H](CC(=O)O)NC(=O)[C@@H](N)CSSC[C@@H](C(=O)NCC(N)=O)NC(=O)[C@H](Cc2ccc(O)cc2)NC(=O)[C@@H]2CCCN2C(=O)[C@H]([C@@H](C)O)NC1=O, Synthetic peptide from Fmoc synthesis on RinkAmide resin, oxidised in PBS with 10% DMSO; also called cyclic DRATPY peptide) [cyclized CDRATPYCG (SEQ ID NO: 9)]	28.1 µM	12.5 µM	> 5000 µM	
